Test results: patent publication US20230027475A1 (ADMARE THERAPEUTICS SOCIETY, published 2023)

Key:
[1] = target: T1, Vaccinia virus A56 antigen (Wyeth VV sequence) expressed on HEK cells (Vaccinia virus, Wyeth strain, UniProt P20978 17-315); test: flow cytometry on HEK-A56 (GFP) cells
T1 construct: also called HEK-A56; HEK-A56 (GFP)
T1 chain: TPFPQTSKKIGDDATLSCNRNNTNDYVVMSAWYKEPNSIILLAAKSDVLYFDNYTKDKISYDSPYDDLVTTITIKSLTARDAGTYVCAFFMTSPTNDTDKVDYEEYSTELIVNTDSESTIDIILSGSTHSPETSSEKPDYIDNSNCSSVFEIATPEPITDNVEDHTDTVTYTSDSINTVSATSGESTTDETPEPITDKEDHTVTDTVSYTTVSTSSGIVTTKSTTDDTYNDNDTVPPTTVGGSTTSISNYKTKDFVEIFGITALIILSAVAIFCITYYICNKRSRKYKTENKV

A56.hFc [2] = target: T2, A56.hFc (Vaccinia virus, Wyeth strain, UniProt P20978 17-279); test: SPR Biacore T200, antibody amine-coupled, […]
T2 construct: also called A56 human Fc fusion protein; A56 protein
T2 chain: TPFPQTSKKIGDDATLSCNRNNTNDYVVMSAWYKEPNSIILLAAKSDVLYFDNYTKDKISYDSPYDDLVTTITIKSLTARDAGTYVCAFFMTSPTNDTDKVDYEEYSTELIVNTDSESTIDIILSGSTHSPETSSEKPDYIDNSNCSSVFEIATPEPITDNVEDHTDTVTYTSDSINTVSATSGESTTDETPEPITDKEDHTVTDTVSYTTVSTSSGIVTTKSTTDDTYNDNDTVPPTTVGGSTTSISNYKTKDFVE

[3] = target: T3, Vaccinia virus B5 antigen (Wyeth VV sequence) expressed on HEK cells (Vaccinia virus, Wyeth strain, UniProt O57254 18-317); test: flow cytometry on HEK-B5 (GFP) cells (panel 'HEKB5')
T3 construct: also called HEK-B5; HEK-B5 (GFP)

A56.hFc [4] = target: T2, A56.hFc; test: SPR Biacore T200, antibody amine-coupled, A56.hFc as analyte, 1:1 Langmuir fit
[5] = target: T4, Vaccinia virus A56 antigen, Western Reserve strain VVdd (eGFP) (Vaccinia virus, Western Reserve strain, UniProt Q01218 17-314); test: ELISA on plate-coated VVdd (eGFP) virus particles, HRP anti-hIgG Fc, lower panel
T4 construct: also called A56 on VVdd (eGFP)-infected cells

[6] = target: T4, Vaccinia virus A56 antigen, Western …; test: flow cytometry on VVdd (eGFP)-infected A549 cells
[7] = target: T3, Vaccinia virus B5 antigen (Wyeth VV …); test: immunohistochemistry (DAB) on histogel sections of HEK-B5 cells
[8] = target: T5, Vaccinia virus B5 antigen, Western Reserve strain VVdd (eGFP) (Vaccinia virus, Western Reserve strain, UniProt Q01227 18-317); test: flow cytometry on VVdd (eGFP)-infected A549 cells
T5 construct: also called B5 on VVdd (eGFP)-infected cells

[9] = target: T1, Vaccinia virus A56 antigen (Wyeth VV …); test: immunohistochemistry (DAB) on histogel sections of HEK-A56 cells
[10] = target: T5, Vaccinia virus B5 antigen, Western …; test: flow cytometry on VVdd (eGFP)-infected A549 cells; remark: listed apart in the source
[11] = target: T5, Vaccinia virus B5 antigen, Western …; test: flow cytometry on VVdd (eGFP)-infected HT29 cells
B5.hFc [12] = target: T6, B5.hFc (Vaccinia virus, Wyeth strain, UniProt O57254 18-279); test: SPR Biacore T200, antibody amine-coupled, […]
T6 construct: also called B5.hFc soluble antigen; B5 human Fc fusion protein

B5.hFc [13] = target: T6, B5.hFc; test: SPR Biacore T200, antibody amine-coupled, B5.hFc as analyte, 1:1 Langmuir fit
[14] = target: T4, Vaccinia virus A56 antigen, Western …
[15] = target: T3, Vaccinia virus B5 antigen (Wyeth VV …); test: flow cytometry on HEK-B5 (GFP) cells
[16] = target: T5, Vaccinia virus B5 antigen, Western …; test: ELISA on plate-coated VVdd (eGFP) virus particles, HRP anti-hIgG Fc, upper panel

B1: A050 (antibody, V domains shown)
VH: QSLEESGGDLVKPGASLTLTCTASGFSFSSSYWLCWARQAPGKGPEWIACIYNGDGSTHYASWAKGRFTISKSSSTTVTLQMTSLTAADTATYFCARDYTYNFYTYGFNLWGPGTLVTVSS
VL: FELTQTPSSVEAAVGGTVTINCQASQSVNIWASWYQQKPGQPPKLLIYKASTLASGVPSRFKGSGSGTEFTLTISDLECADAATYYCQGGYPSSSSGWAFGGGTEVVVK
notes: also called A050 (A56); anti-A56 rabbit antibody A050 hIgG1
Question: Does B1 bind [1]?
Answer: binds

Question: What about the Kd (A56.hFc [2]) of the same binder?
Answer: 0.507 nM

Question: Does B1 bind [3]?
Answer: no binding (tested: about 330 nM)

Question: What about the koff (A56.hFc [4]) of the same binder?
Answer: 5.07e-05 s⁻¹

Question: And the kon (A56.hFc [4])?
Answer: 99800 M⁻¹ s⁻¹

Question: Does B1 bind [5]?
Answer: binds

B2: A059 (antibody, V domains shown)
VH: QSLEESGGDLVKPGASLTLTCTASGIDFSDIYYISWVRQAPGKGLEWIACTYAGSSGSTYYATWAKGRFTISKASSTTVTLQMTSLTAADTATYFCARDRYPGTSGRVYGMDLWGPGTLVTVSS
VL: VVMTQTPSSVSEPVGGTVTIKCQASQSISDLLSWYQQKPGQPPKLLIYSASTLASGVSSRFKGSGSGTEFTLTISDLECADAATYYCQCNYYSPTYGNGFGGGTEVVVK
notes: also called A059 anti-A56, Rb/Mu IgG2a; A049/A059/A056
Question: Which results are given for B2?
Answer: EC50 [6]: 5 nM; binding result [7]: no binding (tested: 10 ug/mL)

B3: A056 (antibody, V domains shown)
VH: B2 VH
VL: B2 VL
notes: also called A056 anti-A56, Rb IgG; anti-A56-PE (A056, Rb IgG)
Question: What does the source list for B3?
Answer: EC50 [6]: 16 nM; binding result [7]: no binding (tested: 10 ug/mL)

B4: A049 (antibody, V domains shown)
VH: B2 VH
VL: B2 VL
notes: also called A049 (A56); A049 anti-A56 hIgG1
Question: Which Kd (A56.hFc [2]) does the source give for B4 here?
Answer: ≤ 0.1 nM

Question: And the EC50 [6]?
Answer: 14 nM

Question: What about the koff (A56.hFc [4]) of the same binder?
Answer: 2.27e-05 s⁻¹

Question: What about the kon (A56.hFc [4]) of the same binder?
Answer: 395000 M⁻¹ s⁻¹

B5: A073 (antibody, V domains shown)
VH: QEQLEESGGGLVKPEGSLTLTCTASGFSFSSSYYMCWVRQAPGRGLEWIACIYTSSGSAYYANWAKGRFTISRTSSTTVTLQMTRLTAADTATYFCVRNAVGSSYYLYLWGPGTLVTVSS
VL: QVLTQTPSPVSAAVGGTVTISCQASQSVAGNNYLSWYQQKPGQPPNLLIYSVSTLASGVPSRFKGSGSGTQFTLTISDLECDDAATYYCQGYYNDGIWAFGGGTEVVVK
notes: also called A073 anti-B5, Rb IgG; anti-B5-PE (A073, Rb IgG)
Question: B5 was tested. Which EC50 [8] did it give?
Answer: 3 nM

Question: Does B5 bind [9]?
Answer: no binding (tested: 10 ug/mL)

B6: A048 (antibody, V domains shown)
VH: B5 VH
VL: B5 VL
notes: also called anti-B5 A048 hIgG1
Question: Which results are given for B6?
Answer: EC50 [10]: 6 nM; EC50 [11]: 1.1 nM; Kd (B5.hFc [12]): 0.745 nM; EC50 [8]: 9 nM; koff (B5.hFc [13]): 2.21e-05 s⁻¹; kon (B5.hFc [13]): 29700 M⁻¹ s⁻¹

B7: A058 (antibody, V domains shown)
VH: B5 VH
VL: B5 VL
notes: also called A058 anti-B5, Rb/Mu IgG2a; A048/A058/A073
Question: B7 was tested. Which EC50 [8] did it give?
Answer: 3 nM

Question: Does B7 bind [9]?
Answer: no binding (tested: 10 ug/mL)

B8: A054 (antibody, V domains shown)
VH: QEQVVESGGGLVKPGASLTLTCTASGFTLSSSYWICWVRQAPGKGPEWIACTYNGDGSTHYASWAKGRFTISKSSSTTVTLQMTSLTAADTATYFCARDYTDAFYTYGFNLWGPGTLVTVSS
VL: DIVMTQTPASVSEPVGGTVTIKCQASQSTSSYLAWYQQKPGQPPKLLIYRASSLASGVPSRFKGSGSATEFTLTISDLECADAATYYCQTGFYGSSGHTFGGGTEVVVK
notes: also called A054 (A56); anti-A56 rabbit antibody A054 hIgG1
Question: Which “EC50 (read off the curve)” value [14] does the source give for B8 here?
Answer: ~5 nM

Question: Does B8 bind [1]?
Answer: binds

Question: What about the Kd (A56.hFc [2]) of the same binder?
Answer: 15.3 nM

Question: Does B8 bind [3]?
Answer: no binding (tested: about 330 nM)

Question: And the koff (A56.hFc [4])?
Answer: 0.0141 s⁻¹

Question: What about the kon (A56.hFc [4]) of the same binder?
Answer: 925000 M⁻¹ s⁻¹

B9: A051 (antibody, V domains shown)
VH: QEQVEESGGGLAKPGASLTLTCEASGFTLSSYWMCWVRQAPGKGLEWIACIYGGSSGSTYYSNWAKGRFTISKTSSTTVTLQMTSLTAADTATYFCARDGSTWDYFRLWGPGTLVTVSS
VL: YDMTQTPSSVEAAVGGTVTIKCQASQSINTNYLSWYQQKPGQPPKLLIYQASTLESGVPSRFKGSGSGTEYTLTISDLECADAATYYCQGYYTVENIGNPFGGGTEVVVK
notes: also called anti-B5 rabbit antibody A051 hIgG1
Question: Does B9 bind [15]?
Answer: binds

Question: Does B9 bind [16]?
Answer: binds

B10: A047 (antibody, V domains shown)
VH: QEQLEESGGDLVKPEGSLTLTCTASGFSFSSSYWICWVRQAPGKGLEWIACIYAGSGGSTYYATWAKGRFTISKTSSTTVTLQMTSLTAADTASYFCVRAYSDRSGGYSFNLWGPGTLVTVSS
VL: QVLTQTASPVSAAVGGTVTINCQASQSVDNNNYLAWYQQKPGQPPKQLIYSASSLASGVPSRFKGSGSGTQFTLTISDVQCDDAATYYCLGSYDCSDADCYAFGGGTEVVVK
notes: also called A047 (A56); anti-A56 rabbit antibody A047 hIgG1
Question: Which results are given for B10?
Answer: binding result [1]: binds; Kd (A56.hFc [2]): 2.34 nM; binding result [3]: no binding (tested: about 330 nM); koff (A56.hFc [4]): 4.5e-05 s⁻¹; kon (A56.hFc [4]): 19200 M⁻¹ s⁻¹; binding result [5]: binds
